The nature of this series: self-splicing fitness, log relative to wild type (ln ratio); higher = more splicing; Tetrahymena group I intron in knt gene, E. coli kanamycin selection, DiMSum; sequences stand for … in CUCUCU…GGAGGGAAAAGUUAUCAGGCAUGCACCUGGUAGCUAGUCUUUAAACCAAUAGAUUGCAUCGGUUUAAAAGGCAAGACCGUCAAAUUGCGGGAAAGGGGUCAACAGCCGUUCAGUACCAAGUCUCAGGGGAAACUUUGAGAUGGCCUUGCAAAGGGUAUGGUAAUAAGCUGACGGACAUGGUCCUAACCACGCAGCCAAGUCCUAAGUCAACAGAUCUUCUGUUGAUAUGGAUGCAGUUCACAGACUAAAUGUCGGUCGGGGAAGAUGUAUUCUUCUCAUAAGAUAUAGUCGGACCUCUCCUUAAUGGGAGCUAGCGGAUGAAGUGAUGCAACACUGGAGCCGCUGGGAACUAAUUUGUAUGCGAAAGUAUAUUGAUUAGUUUUGGAGUACUCGUGGUCG
In a few lines: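 Fitness was computed with DiMSum as the error-weighted combination of replicate fold changes, kanamycin versus none, each normalised to wild type. The library randomised all eight intron nucleotides of the P1ex region, with the intron placed in the knt kanamycin-resistance gene on pET-22b(+) in E. coli BL21(DE3). Six replicate transformations were grown overnight at 37°C or 30°C on LB agar with or without 25 μg/mL kanamycin, plus 100 μg/mL carbenicillin, 50 μM IPTG and 0.2% rhamnose. Pooled colonies were amplicon-sequenced on an Illumina HiSeq 2500.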

± gives the uncertainty stated by the source.

In the case of CGGCAGCAAUAUUACGGUCC, the “self-splicing fitness (ln)” value (30 °C) is -1.34 ± 0.082 and the “self-splicing fitness (ln)” value (37 °C) was determined as 0.00991 ± 0.09.
As for AUAAAGCAAUAUUACGCGUA, the “self-splicing fitness (ln)” value by setting is: (30 °C) -0.873 ± 0.079; (37 °C) -0.0465 ± 0.091.
On to ACGUAGCAAUAUUACGCGUU, for which the “self-splicing fitness (ln)” value (37 °C) was -2.49 ± 0.24.
ACACAGCAAUAUUACGUCUC: the “self-splicing fitness (ln)” value by setting is: (30 °C) -3.26 ± 0.099; (37 °C) -1.25 ± 0.08.
For GGAUAGCAAUAUUACGUCAG the same measures were -2.87 ± 0.12 and -2.12 ± 0.23.
For AACUAGCAAUAUUACGGUGC the same measures were -2.46 ± 0.16 and -1.77 ± 0.15.
As to GGCCAGCAAUAUUACGUAGU, the “self-splicing fitness (ln)” value (30 °C) is -2.25 ± 0.12 and the “self-splicing fitness (ln)” value (37 °C) was -2.13 ± 0.12.
Take UUGUAGCAAUAUUACGGAAA: the “self-splicing fitness (ln)” value was -2.55 ± 0.39 (30 °C) and -1.2 ± 0.22 (37 °C).
In the case of CAAGAGCAAUAUUACGAUUG, the “self-splicing fitness (ln)” value runs as follows: (30 °C) -2.26 ± 0.13; (37 °C) -1.86 ± 0.15.
As to ACGUAGCAAUAUUACGGUCG, the “self-splicing fitness (ln)” value (30 °C) was -1.23 ± 0.093 and the “self-splicing fitness (ln)” value (37 °C) was -0.666 ± 0.12.
With GUAAAGCAAUAUUACGUUAG, the “self-splicing fitness (ln)” value is -1.01 ± 0.057 (30 °C) and -0.896 ± 0.076 (37 °C).
On to AAUGAGCAAUAUUACGUGCG, for which the “self-splicing fitness (ln)” value reads like this: (30 °C) -2 ± 0.15; (37 °C) -1.99 ± 0.3.
CCUGAGCAAUAUUACGGCCG: the “self-splicing fitness (ln)” value (37 °C) was -2.21 ± 0.4.
As for ACUAAGCAAUAUUACGGGGU, the “self-splicing fitness (ln)” value is, setting by setting: (30 °C) -4.13 ± 0.28; (37 °C) -2.2 ± 0.19.
For the sequence AAAUAGCAAUAUUACGGAUA, the “self-splicing fitness (ln)” value (30 °C) was -2.19 ± 0.2 and the “self-splicing fitness (ln)” value (37 °C) is -1.1 ± 0.16.
For UGACAGCAAUAUUACGAGGC the same measures were -2.35 ± 0.23 and -2.95 ± 0.43.
The like results for UAAAAGCAAUAUUACGGAUC were, in that order, -2.28 ± 0.29 and -1.81 ± 0.24.
In the case of AGAUAGCAAUAUUACGUACC, the “self-splicing fitness (ln)” value by setting is: (30 °C) -0.423 ± 0.13; (37 °C) 0.0629 ± 0.14.
As for ACUUAGCAAUAUUACGUUGC, the “self-splicing fitness (ln)” value (30 °C) was -3.9 ± 0.38 and the “self-splicing fitness (ln)” value (37 °C) is -1.8 ± 0.26.
For the sequence UACGAGCAAUAUUACGCGCG, the “self-splicing fitness (ln)” value (30 °C) was -1.35 ± 0.13 and the “self-splicing fitness (ln)” value (37 °C) is -1.14 ± 0.18.
With UCGCAGCAAUAUUACGUAGU, the “self-splicing fitness (ln)” value by setting is: (30 °C) -2.58 ± 0.13; (37 °C) -2.85 ± 0.26.
As for GUUUAGCAAUAUUACGUAGU, the “self-splicing fitness (ln)” value is -1.84 ± 0.14 (30 °C) and -0.706 ± 0.14 (37 °C).
In the case of UCUAAGCAAUAUUACGGCCA, the “self-splicing fitness (ln)” value (30 °C) was -1.21 ± 0.22 and the “self-splicing fitness (ln)” value (37 °C) is -1.17 ± 0.21.
GCGAAGCAAUAUUACGACAU: the “self-splicing fitness (ln)” value (30 °C) is -0.422 ± 0.012 and the “self-splicing fitness (ln)” value (37 °C) stood at 0.0421 ± 0.032.
Take AGUAAGCAAUAUUACGGAAU: the “self-splicing fitness (ln)” value is, setting by setting: (30 °C) -2.75 ± 0.14; (37 °C) -1.5 ± 0.15.
Regarding UGUCAGCAAUAUUACGGUUA, the “self-splicing fitness (ln)” value (30 °C) is -0.384 ± 0.089 and the “self-splicing fitness (ln)” value (37 °C) turned out to be 0.239 ± 0.087.
Consider UCUAAGCAAUAUUACGCAUA, for which the “self-splicing fitness (ln)” value by setting is: (30 °C) -1.86 ± 0.18; (37 °C) -2.33 ± 0.25.
Turning to GAAGAGCAAUAUUACGUCAU, the “self-splicing fitness (ln)” value is, setting by setting: (30 °C) -3.91 ± 0.48; (37 °C) -2.13 ± 0.38.
For the sequence GACGAGCAAUAUUACGCUAA, the “self-splicing fitness (ln)” value is, setting by setting: (30 °C) -2.64 ± 0.35; (37 °C) -2.25 ± 0.31.
ACGCAGCAAUAUUACGUCAC: the “self-splicing fitness (ln)” value (30 °C) was -4.13 ± 0.39 and the “self-splicing fitness (ln)” value (37 °C) is -2.54 ± 0.19.
The like results for AAGAAGCAAUAUUACGAACU were, in that order, -0.3 ± 0.091 and 0.86 ± 0.11.
As for UACUAGCAAUAUUACGGUAA, the “self-splicing fitness (ln)” value by setting is: (30 °C) -2.33 ± 0.14; (37 °C) -1.01 ± 0.12.
The like results for CGCCAGCAAUAUUACGUGCC were, in that order, -1.13 ± 0.091 and -0.673 ± 0.11.
The like results for ACCGAGCAAUAUUACGGACU were, in that order, -0.27 ± 0.073 and 0.614 ± 0.1.

The values are drawn from the supplement of paper PMC7877785.
